Measured values published in paper PMC11574045, “A cofactor-induced repressive type of transcription factor condensation can be induced by synthetic peptides to suppress tumorigenesis” (The EMBO Journal, 2024).

tested on: HEK293FT cells transfected with TF library; assay: Screening of TF condensates based on fluorescent puncta; assay type: cell-based; conditions: Figure 1B numerical data; TF library screen, one value per transcriptional factor
Description: TF plasmids were automatically added to black-walled 384-well plates at 80 ng per well to reach a final concentration of 1.6 μg/ml. Polyethylenimine (PEI, Sigma) was then added to the plasmid-loaded plates at 240 ng per well (4.8 μg/ml). Subsequently, HEK293FT cells were seeded into the plate at 2000 cells per well. After 60 h, cells were cultured in medium with or without glucose for 12 h, and then fixed with 4% paraformaldehyde (PFA) at room temperature for 30 min. After three washes with PBS, fixed cells were permeabilized with 0.05% Triton X-100 for 15 min. Thereafter, cells were blocked with 5% BSA for 1 h, and then incubated overnight with anti-Flag (Sigma F3165, 1:200) and anti-GAL4 (Abbkine ABP57232, 1:200) primary antibodies at 4 °C. The cells were then gently washed with PBS, followed by being incubated with Alexa Fluor Plus 488 goat anti-mouse IgG secondary antibody (Thermo A32723, 1:400) or Alexa Fluor Plus 488 goat anti-rabbit IgG secondary antibody (Thermo A32731, 1:400) for 1 h. The plates were kept at 4 °C in the dark before being analyzed using an Opera System (Perkin Elmer). Fifty random fields per well were scanned and analyzed using the Columbus Plus Image Data Storage and Analysis System (Perkin Elmer).

Row | Molecule | Z score of condensed fraction
1 | ESRRA (protein, UniProt P11474 1-423, looked up) Steroid hormone receptor ERR1: MSSQVVGIEPLYIKAEPASPDSPKGSSETETEPPVALAPGPAPTRCLPGHKEEEDGEGAGPGEQGGGKLVLSSLPKRLCLVCGDVASGYHYGVASCEACKAFFKRTIQGSIEYSCPASNECEITKRRRKACQACRFTKCLRVGMLKEGVRLDRVRGGRQKYKRRPEVDPLPFPGPFPAGPLAVAGGPRKTAAPVNALVSHLLVVEPEKLYAMPDPAGPDGHLPAVATLCDLFDREIVVTISWAKSIPGFSSLSLSDQMSVLQSVWMEVLVLGVAQRSLPLQDELAFAEDLVLDEEGARAAGLGELGAALLQLVRRLQALRLEREEYVLLKALALANSDSVHIEDAEAVEQLREALHEALLEYEAGRAGPGGGAERRRAGRLLLTLPLLRQTAGKVLAHFYGVKLEGKVPMHKLFLEMLEAMMD | 0.7125
2 | ETV1 (protein, UniProt P50549 1-477, looked up) ETS translocation variant 1: MDGFYDQQVPYMVTNSQRGRNCNEKPTNVRKRKFINRDLAHDSEELFQDLSQLQETWLAEAQVPDNDEQFVPDYQAESLAFHGLPLKIKKEPHSPCSEISSACSQEQPFKFSYGEKCLYNVSAYDQKPQVGMRPSNPPTPSSTPVSPLHHASPNSTHTPKPDRAFPAHLPPSQSIPDSSYPMDHRFRRQLSEPCNSFPPLPTMPREGRPMYQRQMSEPNIPFPPQGFKQEYHDPVYEHNTMVGSAASQSFPPPLMIKQEPRDFAYDSEVPSCHSIYMRQEGFLAHPSRTEGCMFEKGPRQFYDDTCVVPEKFDGDIKQEPGMYREGPTYQRRGSLQLWQFLVALLDDPSNSHFIAWTGRGMEFKLIEPEEVARRWGIQKNRPAMNYDKLSRSLRYYYEKGIMQKVAGERYVYKFVCDPEALFSMAFPDNQRPLLKTDMERHINEEDTVPLSHFDESMAYMPEGGCCNPHPYNEGYVY | -0.2404
3 | ETV2 (protein, UniProt P41163 1-335, looked up) ETS translocation variant 2: MDLWNWDEASLQEVPPGDKLTGLGAEFGFYFPEVALQEDTPITPMNVEGCWKGFPELDWNPALPHEDVPFQAEPVAHPLPWSRDWTDLGCNTSDPWSCASQTPGPAPPGTSPSPFVGFEGATGQNPATSAGGVPSWSHPPAAWSTTSWDCSVGPSGATYWDNGLGGEAHEDYKMSWGGSAGSDYTTTWNTGLQDCSIPFEGHQSPAFTTPSKSNKQSDRATLTRYSKTNHRGPIQLWQFLLELLHDGARSSCIRWTGNSREFQLCDPKEVARLWGERKRKPGMNYEKLSRGLRYYYRRDIVLKSGGRKYTYRFGGRVPVLAYQDDMGHLPGAEGQ | 0.6041
4 | ETV7 (protein, UniProt Q9Y603 1-341, looked up) Transcription factor ETV7: MQEGELAISPISPVAAMPPLGTHVQARCEAQINLLGEGGICKLPGRLRIQPALWSREDVLHWLRWAEQEYSLPCTAEHGFEMNGRALCILTKDDFRHRAPSSGDVLYELLQYIKTQRRALVCGPFFGGIFRLKTPTQHSPVPPEEVTGPSQMDTRRGHLLQPPDPGLTSNFGHLDDPGLARWTPGKEESLNLCHCAELGCRTQGVCSFPAMPQAPIDGRIADCRLLWDYVYQLLLDTRYEPYIKWEDKDAKIFRVVDPNGLARLWGNHKNRVNMTYEKMSRALRHYYKLNIIKKEPGQKLLFRFLKTPGKMVQDKHSHLEPLESQEQDRIEFKDKRPEISP | -0.026
5 | EZH1 (protein, UniProt Q92800 1-747, looked up) Histone-lysine …: MEIPNPPTSKCITYWKRKVKSEYMRLRQLKRLQANMGAKALYVANFAKVQEKTQILNEEWKKLRVQPVQSMKPVSGHPFLKKCTIESIFPGFASQHMLMRSLNTVALVPIMYSWSPLQQNFMVEDETVLCNIPYMGDEVKEEDETFIEELINNYDGKVHGEEEMIPGSVLISDAVFLELVDALNQYSDEEEEGHNDTSDGKQDDSKEDLPVTRKRKRHAIEGNKKSSKKQFPNDMIFSAIASMFPENGVPDDMKERYRELTEMSDPNALPPQCTPNIDGPNAKSVQREQSLHSFHTLFCRRCFKYDCFLHPFHATPNVYKRKNKEIKIEPEPCGTDCFLLLEGAKEYAMLHNPRSKCSGRRRRRHHIVSASCSNASASAVAETKEGDSDRDTGNDWASSSSEANSRCQTPTKQKASPAPPQLCVVEAPSEPVEWTGAEESLFRVFHGTYFNNFCSIARLLGTKTCKQVFQFAVKESLILKLPTDELMNPSQKKKRKHRLWAAHCRKIQLKKDNSSTQVYNYQPCDHPDRPCDSTCPCIMTQNFCEKFCQCNPDCQNRFPGCRCKTQCNTKQCPCYLAVRECDPDLCLTCGASEHWDCKVVSCKNCSIQRGLKKHLLLAPSDVAGWGTFIKESVQKNEFISEYCGELISQDEADRRGKVYDKYMSSFLFNLNNDFVVDATRKGNKIRFANHSVNPNCYAKVVMVNGDHRIGIFAKRAIQAGEELFFDYRYSQADALKYVGIERETDVL | -2.133
6 | AFF3 (protein, UniProt P51826 1-1226, looked up) AF4/FMR2 family member 3: MDSFDLALLQEWDLESLCVYEPDRNALRRKERERRNQETQQDDGTFNSSYSLFSEPYKTNKGDELSNRIQNTLGNYDEMKDFLTDRSNQSHLVGVPKPGVPQTPVNKIDEHFVADSRAQNQPSSICSTTTSTPAAVPVQQSKRGTMGWQKAGHPPSDGQQRATQQGSLRTLLGDGVGRQQPRAKQVCNVEVGLQTQERPPAMAAKHSSSGHCVQNFPPSLASKPSLVQQKPTAYVRPMDGQDQAPDESPKLKSSSETSVHCTSYRGVPASKPEPARAKAKLSKFSIPKQGEESRSGETNSCVEEIIREMTWLPPLSAIQAPGKVEPTKFPFPNKDSQLVSSGHNNPKKGDAEPESPDNGTSNTSMLEDDLKLSSDEEENEQQAAQRTALRALSDSAVVQQPNCRTSVPSSKGSSSSSSSGSSSSSSDSESSSGSDSETESSSSESEGSKPPHFSSPEAEPASSNKWQLDKWLNKVNPHKPPILIQNESHGSESNQYYNPVKEDVQDCGKVPDVCQPSLREKEIKSTCKEEQRPRTANKAPGSKGVKQKSPPAAVAVAVSAAAPPPAVPCAPAENAPAPARRSAGKKPTRRTERTSAGDGANCHRPEEPAAADALGTSVVVPPEPTKTRPCGNNRASHRKELRSSVTCEKRRTRGLSRIVPKSKEFIETESSSSSSSSDSDLESEQEEYPLSKAQTVAASASSGNDQRLKEAAANGGSGPRAPVGSINARTTSDIAKELEEQFYTLVPFGRNELLSPLKDSDEIRSLWVKIDLTLLSRIPEHLPQEPGVLSAPATKDSESAPPSHTSDTPAEKALPKSKRKRKCDNEDDYREIKKSQGEKDSSSRLATSTSNTLSANHCNMNINSVAIPINKNEKMLRSPISPLSDASKHKYTSEDLTSSSRPNGNSLFTSASSSKKPKADSQLQPHGGDLTKAAHNNSENIPLHKSRPQTKPWSPGSNGHRDCKRQKLVFDDMPRSADYFMQEAKRMKHKADAMVEKFGKALNYAEAALSFIECGNAMEQGPMESKSPYTMYSETVELIRYAMRLKTHSGPNATPEDKQLAALCYRCLALLYWRMFRLKRDHAVKYSKALIDYFKNSSKAAQAPSPWGASGKSTGTPSPMSPNPSPASSVGSQGSLSNASALSPSTIVSIPQRIHQMAANHVSITNSILHSYDYWEMADNLAKENREFFNDLDLLMGPVTLHSSMEHLVQYSQQGLHWLRNSAHLS | -0.8104
7 | FERD3L (protein, UniProt Q96RJ6 1-166, looked up) Fer3-like protein: MAAYPESCVDTTVLDFVADLSLASPRRPLLCDFAPGVSLGDPALALREGRPRRMARFEEGDPEEEECEVDQGDGEEEEEEERGRGVSLLGRPKRKRVITYAQRQAANIRERKRMFNLNEAFDQLRRKVPTFAYEKRLSRIETLRLAIVYISFMTELLESCEKKESG | 0.6489
8 | FHL2 (protein, UniProt Q14192 1-279, looked up) Four and a half LIM domains …: MTERFDCHHCNESLFGKKYILREESPYCVVCFETLFANTCEECGKPIGCDCKDLSYKDRHWHEACFHCSQCRNSLVDKPFAAKEDQLLCTDCYSNEYSSKCQECKKTIMPGTRKMEYKGSSWHETCFICHRCQQPIGTKSFIPKDNQNFCVPCYEKQHAMQCVQCKKPITTGGVTYREQPWHKECFVCTACRKQLSGQRFTARDDFAYCLNCFCDLYAKKCAGCTNPISGLGGTKYISFEERQWHNDCFNCKKCSLSLVGRGFLTERDDILCPDCGKDI | 0.8678
9 | FLI1 (protein, UniProt Q01543 1-452, looked up) Friend leukemia integration 1 …: MDGTIKEALSVVSDDQSLFDSAYGAAAHLPKADMTASGSPDYGQPHKINPLPPQQEWINQPVRVNVKREYDHMNGSRESPVDCSVSKCSKLVGGGESNPMNYNSYMDEKNGPPPPNMTTNERRVIVPADPTLWTQEHVRQWLEWAIKEYSLMEIDTSFFQNMDGKELCKMNKEDFLRATTLYNTEVLLSHLSYLRESSLLAYNTTSHTDQSSRLSVKEDPSYDSVRRGAWGNNMNSGLNKSPPLGGAQTISKNTEQRPQPDPYQILGPTSSRLANPGSGQIQLWQFLLELLSDSANASCITWEGTNGEFKMTDPDEVARRWGERKSKPNMNYDKLSRALRYYYDKNIMTKVHGKRYAYKFDFHGIAQALQPHPTESSMYKYPSDISYMPSYHAHQQKVNFVPPHPSSMPVTSSSFFGAASQYWTSPTGGIYPNPNVPRHPNTHVPSHLGSYY | 0.3939
10 | FOSB (protein, UniProt P53539 1-338, looked up) Protein FosB: MFQAFPGDYDSGSRCSSSPSAESQYLSSVDSFGSPPTAAASQECAGLGEMPGSFVPTVTAITTSQDLQWLVQPTLISSMAQSQGQPLASQPPVVDPYDMPGTSYSTPGMSGYSSGGASGSGGPSTSGTTSGPGPARPARARPRRPREETLTPEEEEKRRVRRERNKLAAAKCRNRRRELTDRLQAETDQLEEEKAELESEIAELQKEKERLEFVLVAHKPGCKIPYEEGPGPGPLAEVRDLPGSAPAKEDGFSWLLPPPPPPPLPFQTSQDAPPNLTASLFTHSEVQVLGDPFPVVNPSYTSSFVLTCPEVSAFAGAQRTSGSDQPSDPLNSPSLLAL | 1.202
11 | FOSL1 (protein, UniProt P15407 1-271, looked up) Fos-related antigen 1: MFRDFGEPGPSSGNGGGYGGPAQPPAAAQAAQQKFHLVPSINTMSGSQELQWMVQPHFLGPSSYPRPLTYPQYSPPQPRPGVIRALGPPPGVRRRPCEQISPEEEERRRVRRERNKLAAAKCRNRRKELTDFLQAETDKLEDEKSGLQREIEELQKQKERLELVLEAHRPICKIPEGAKEGDTGSTSGTSSPPAPCRPVPCISLSPGPVLEPEALHTPTLMTTPSLTPFTPSLVFTYPSTPEPCASAHRKSSSSSGDPSSDPLGSPTLLAL | -0.3444
